Assay results published in US12564623B2, “Methods and compositions for treating cancer” (The University of Chicago, priority 2017, dated 2026).

Legend:
[1] = tested on: E0771 cancer cells; test: E0771 tumors in Rag2-/- versus wild type mice; assay type: in vivo, C57BL/6 mice; conditions: 11.6 μg intratumorally once/day for 5 days
Method: The inventors therefore explored whether ELANE-mediated cancer cell killing could positively influence the immune cells in the tumor. Rag2^−/− mice in C57BL/6 background (no adaptive immunity) and wild type (wt) C57BL/6 mice were both ordered from the Jackson laboratory. E0771 cancer cells were injected into both mouse models. Once tumors reached ˜100 mm^3. ELANE (11.6 μg) or HAS (11.6 μg) were delivered intratumorally once/day for 5 days. Tumor volume was assessed by calipers. Kaplan-Meier curve was plotted and the logrank test (Mentel-Cox method) was used for mouse survival analysis. End point of survival is defined as tumor volume >1000 mm^3.
Adaptive immune cells contribute to ELANE's therapeutic efficacy. Rag2-deficient (Rag2−/−) mice on the C57BL/6 background (no adaptive immunity) and wild type (wt) C57BL/6 mice were injected with E0771 cancer cells. Once tumors reached ˜100 mm^3. ELANE (11.6 μg) or HSA (11.6 μg) were delivered intra-tumorally once/day for 5 days. (FIG. 18A) Tumor volume was assessed by calipers. (FIG. 18B) Kaplan-Meier curve was plotted and the logrank test (Mentel-Cox method) was used for survival analysis. End point of survival is defined as tumor volume >1000 mm^3.

[2] = biological target: T1, CD95 (Homo sapiens, UniProt P25445); test: CD95 loss and immunoreactivity in ELANE-treated cancer cells; assay type: cell-based; design: endogenous in cells; host or cells: Mel888 melanoma cells
T1 sequence (P25445 26-335): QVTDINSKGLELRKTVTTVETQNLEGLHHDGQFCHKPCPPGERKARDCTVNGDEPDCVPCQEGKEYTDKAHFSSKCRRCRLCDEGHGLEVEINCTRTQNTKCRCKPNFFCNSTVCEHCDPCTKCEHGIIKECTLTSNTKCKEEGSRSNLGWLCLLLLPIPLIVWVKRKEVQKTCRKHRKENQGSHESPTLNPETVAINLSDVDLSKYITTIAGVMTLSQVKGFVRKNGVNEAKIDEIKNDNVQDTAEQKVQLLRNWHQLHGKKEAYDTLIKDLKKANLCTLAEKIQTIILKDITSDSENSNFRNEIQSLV
Method: ELANE lowers CD95 levels in cancer cells and reduced CD95 levels are associated with apoptosis. (FIG. 8A) Recombinant proteins (1 μg) corresponding to full length CD95 (FL-CD95), N-terminal domain of CD95 (amino acids 1-173; N-CD95), or C-terminal domain of CD95 (amino acids 157-320; C-CD95) were inbuated with ELANE (0.05 μg) or vehicle (Veh) for 2 hrs at 37° C. Degradation was assessed by SDS-PAGE followed by coomassie blue staining. […] (FIG. 8C) Cancer cells were treated with ELANE (50 nM) for 1 hr, fixed in 10% formalin, and stained with N- or C-terminal specific anti-CD95 antibodies (green). Hoechst 33342 solution was used for nuclear staining (blue). Images were taken under 40×.
ELANE selectively cleaves the C-terminal domain of CD95. The CD95 pathway is essential for the survival of a wide range of cancer cells, but largely dispensable for normal cell survival (Adachi et al., Nat. Genet., 1995; Karray et al., J. Immunol., 2004). CD95 function can be modulated by proteolysis (Strand et al., Oncogene, 2004). […] Degradation was assessed by SDS-PAGE followed by staining with coomassie blue. […] Mel888 cancer cells were treated with ELANE (50 nM) for various times, and CD95 degradation was assessed by western blot analysis with a C-terminal specific anti-CD95 antibody.

B1: neutrophil elastase (protein, listed as Homo sapiens)
chain: MTLGRRLACLFLACVLPALLLGGTALASEIVGGRRARPHAWPFMVSLQLRGGHFCGATLIAPNFVMSAAHCVANVNVRAVRVVLGAHNLSRREPTRQVFAVQRIFENGYDPVNLLNDIVILQLNGSATINANVQVAQLPAQGRRLGNGVQCLAMGWGLLGRNRGIASVLQELNVTVVTSLCRRSNVCTLVRGRQAGVCFGDSGSPLVCNGLIHGIASFVRGGCASGLYPDAFAPVAQFVNWIDSIIQRSEDNPCPHPRDPDPASRTH
notes: purified native ELANE
[1]
  efficacy in immune competent versus adaptive immunity deficient mice: more efficacious than adaptive immunity deficient mice
[2]; 50 nM, 1 hr
  CD95 immunoreactivity of cancer cells: lose immunoreactivity to a C-terminal specific CD95 antibody, but not to an N-terminal specific CD95 antibody
[2]; incubating cancer cells with ELANE
  CD95 at the cell surface: CD95 loss from the cell surface
